Measurements from PMC9482650, “Quantitative fragmentomics allow affinity mapping of interactomes” (Nature Communications, 2022).

T1: TIAM2, Q8IVF5
T1 sequence (Q8IVF5 885-986, limits assumed, looked up): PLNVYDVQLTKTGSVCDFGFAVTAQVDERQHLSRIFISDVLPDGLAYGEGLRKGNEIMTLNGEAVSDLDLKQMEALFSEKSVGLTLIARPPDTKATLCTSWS

T2: HTRA3, P83110
T2 sequence (P83110 354-453, limits assumed, looked up): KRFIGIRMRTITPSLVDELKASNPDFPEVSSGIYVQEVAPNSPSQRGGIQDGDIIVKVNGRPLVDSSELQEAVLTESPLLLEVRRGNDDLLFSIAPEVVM

T3: PCLO, Q9Y6V0
T3 sequence (Q9Y6V0 4491-4600, limits assumed, looked up): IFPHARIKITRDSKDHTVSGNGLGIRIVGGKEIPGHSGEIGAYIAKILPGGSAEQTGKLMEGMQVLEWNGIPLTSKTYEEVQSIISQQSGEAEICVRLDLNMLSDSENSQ

T4: DLG3_1, Q92796
T4 sequence (Q92796 125-227, limits assumed, looked up): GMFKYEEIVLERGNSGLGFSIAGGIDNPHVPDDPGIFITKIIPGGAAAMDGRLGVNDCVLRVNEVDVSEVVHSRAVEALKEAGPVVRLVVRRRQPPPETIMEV

T5: LIN7B, Q9HAP6
T5 sequence (Q9HAP6 88-185, limits assumed, looked up): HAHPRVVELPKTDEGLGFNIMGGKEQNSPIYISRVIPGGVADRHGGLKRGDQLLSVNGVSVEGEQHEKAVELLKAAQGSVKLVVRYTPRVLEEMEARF

T6: SNTG1, Q9NSN8
T6 sequence (Q9NSN8 52-150, limits assumed, looked up): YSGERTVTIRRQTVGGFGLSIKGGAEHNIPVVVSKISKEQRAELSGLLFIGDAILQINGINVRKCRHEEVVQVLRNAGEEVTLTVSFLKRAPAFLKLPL

T7: TX1BP3, O14907
T7 sequence (O14907 10-122, limits assumed, looked up): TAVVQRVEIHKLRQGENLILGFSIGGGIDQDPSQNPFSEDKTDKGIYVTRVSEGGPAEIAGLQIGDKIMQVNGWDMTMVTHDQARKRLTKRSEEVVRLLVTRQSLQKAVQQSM

T8: RAPGEF6, Q8TEU7
T8 sequence (Q8TEU7 525-625, limits assumed, looked up): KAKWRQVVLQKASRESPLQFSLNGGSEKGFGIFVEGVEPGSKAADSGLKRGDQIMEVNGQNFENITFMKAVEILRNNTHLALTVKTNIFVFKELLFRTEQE

T9: PDZD2_2, O15018
T9 sequence (O15018 329-429, limits assumed, looked up): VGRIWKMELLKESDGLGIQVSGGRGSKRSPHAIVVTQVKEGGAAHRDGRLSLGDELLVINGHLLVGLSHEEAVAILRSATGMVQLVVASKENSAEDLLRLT

B1: REELD1, A0A1B0GV85 (peptide)
chain: PSVGSKKTVL
B2: SBF1, O95248 (peptide)
chain: DRIQSCLSDA

The binders below were run against LNX1_1, Q8TBB1 (assay: holdup assay). Details: plain residues with an end cap or a label only (N-terminal biotin on a linker: ado-ado).
Set-up: key: below the threshold = too weak to quantify, mostly under pKd 3.1 to 4

Sequence of LNX1_1, Q8TBB1 (Q8TBB1 261-371): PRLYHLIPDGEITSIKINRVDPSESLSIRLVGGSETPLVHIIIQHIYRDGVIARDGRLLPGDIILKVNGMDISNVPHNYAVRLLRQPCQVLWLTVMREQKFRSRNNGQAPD

With B1 as the binder, how does the pKd read?
The pKd was “below the threshold”.

With B2 as the binder, how does the pKd read?
Its pKd is 3.62.

Each binder was assayed against T1, TIAM2, Q8IVF5 (assay: holdup assay). Details: plain residues with an end cap or a label only (N-terminal biotin on a linker: ado-ado).
Set-up: key: below the threshold = too weak to quantify, mostly under pKd 3.1 to 4

How did the pKd turn out when B1 was run?
Its pKd is “below the threshold”.

With B2 as the binder, how does the pKd read?
The pKd was 4.03.

These binders were tested against IL16_4, Q14005 (assay: holdup assay). Details: plain residues with an end cap or a label only (N-terminal biotin on a linker: ado-ado).
Set-up: key: below the threshold = too weak to quantify, mostly under pKd 3.1 to 4

Sequence of IL16_4, Q14005 (Q14005 1229-1329): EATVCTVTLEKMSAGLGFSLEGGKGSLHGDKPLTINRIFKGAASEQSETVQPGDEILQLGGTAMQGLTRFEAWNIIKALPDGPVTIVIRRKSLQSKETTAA

With B1 as the binder, how does the pKd read?
The pKd was 3.6.

Which pKd does the source give for B2 here?
The pKd was “below the threshold”.

The binders below were run against NHERF4_2, Q86UT5 (assay: holdup assay). Details: plain residues with an end cap or a label only (N-terminal biotin on a linker: ado-ado).
Set-up: key: below the threshold = too weak to quantify, mostly under pKd 3.1 to 4

Sequence of NHERF4_2, Q86UT5 (Q86UT5 220-308): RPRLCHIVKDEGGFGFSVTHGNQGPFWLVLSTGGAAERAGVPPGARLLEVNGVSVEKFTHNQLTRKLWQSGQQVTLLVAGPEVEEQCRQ

B1 was tested. Which pKd did it give?
Its pKd is “below the threshold”.

With B2 as the binder, how does the pKd read?
The pKd was “below the threshold”.

What follows are binders tested against FRMPD2_1, Q68DX3 (assay: holdup assay). Details: plain residues with an end cap or a label only (N-terminal biotin on a linker: ado-ado).
Set-up: key: below the threshold = too weak to quantify, mostly under pKd 3.1 to 4

Sequence of FRMPD2_1, Q68DX3 (Q68DX3 770-861): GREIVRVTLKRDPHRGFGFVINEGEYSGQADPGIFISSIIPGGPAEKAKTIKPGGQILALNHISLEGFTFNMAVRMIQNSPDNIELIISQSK

With B1 as the binder, how does the pKd read?
The pKd was “below the threshold”.

For B2, which pKd is on record?
The pKd was “below the threshold”.

Each binder was assayed against Inadl_1, Q8NI35 (assay: holdup assay). Details: plain residues with an end cap or a label only (N-terminal biotin on a linker: ado-ado).
Set-up: key: below the threshold = too weak to quantify, mostly under pKd 3.1 to 4

Sequence of Inadl_1, Q8NI35 (Q8NI35 113-229): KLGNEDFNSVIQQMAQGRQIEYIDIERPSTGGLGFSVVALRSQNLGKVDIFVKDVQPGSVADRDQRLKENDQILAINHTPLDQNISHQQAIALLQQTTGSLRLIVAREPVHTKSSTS

Which pKd does the source give for B1 here?
Its pKd is “below the threshold”.

With B2 as the binder, how does the pKd read?
The pKd was “below the threshold”.

The binders below were run against SCRIB_3, Q14160 (assay: holdup assay). Details: plain residues with an end cap or a label only (N-terminal biotin on a linker: ado-ado).
Set-up: key: below the threshold = too weak to quantify, mostly under pKd 3.1 to 4

Sequence of SCRIB_3, Q14160 (Q14160 999-1103): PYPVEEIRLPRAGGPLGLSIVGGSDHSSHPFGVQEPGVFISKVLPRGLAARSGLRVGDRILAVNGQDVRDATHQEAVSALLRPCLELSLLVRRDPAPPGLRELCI

B1 was tested. Which pKd did it give?
Its pKd is 3.6.

B2 was tested. Which pKd did it give?
Its pKd is “below the threshold”.

The binders below were run against DLG4_2, P78352 (assay: holdup assay). Details: plain residues with an end cap or a label only (N-terminal biotin on a linker: ado-ado).
Set-up: key: below the threshold = too weak to quantify, mostly under pKd 3.1 to 4

Sequence of DLG4_2, P78352 (P78352 155-259): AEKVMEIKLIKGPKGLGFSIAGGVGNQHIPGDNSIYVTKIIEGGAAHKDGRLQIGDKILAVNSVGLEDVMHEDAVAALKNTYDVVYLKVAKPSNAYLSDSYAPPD

With B1 as the binder, how does the pKd read?
The pKd was “below the threshold”.

With B2 as the binder, how does the pKd read?
The pKd was “below the threshold”.

The binders below were run against T2, HTRA3, P83110 (assay: holdup assay). Details: plain residues with an end cap or a label only (N-terminal biotin on a linker: ado-ado).
Set-up: key: below the threshold = too weak to quantify, mostly under pKd 3.1 to 4

For B1, which pKd is on record?
Its pKd is “below the threshold”.

How did the pKd turn out when B2 was run?
The pKd was 3.57.

What follows are binders tested against T3, PCLO, Q9Y6V0 (assay: holdup assay). Details: plain residues with an end cap or a label only (N-terminal biotin on a linker: ado-ado).
Set-up: key: below the threshold = too weak to quantify, mostly under pKd 3.1 to 4

B1 was tested. Which pKd did it give?
Its pKd is “below the threshold”.

For B2, which pKd is on record?
Its pKd is “below the threshold”.

What follows are binders tested against T4, DLG3_1, Q92796 (assay: holdup assay). Details: plain residues with an end cap or a label only (N-terminal biotin on a linker: ado-ado).
Set-up: key: below the threshold = too weak to quantify, mostly under pKd 3.1 to 4

B1 was tested. Which pKd did it give?
The pKd was “below the threshold”.

How did the pKd turn out when B2 was run?
Its pKd is “below the threshold”.

What follows are binders tested against GOPC, Q9HD26 (assay: holdup assay). Details: plain residues with an end cap or a label only (N-terminal biotin on a linker: ado-ado).
Set-up: key: below the threshold = too weak to quantify, mostly under pKd 3.1 to 4

How did the pKd turn out when B1 was run?
The pKd was 4.26.

Which pKd does the source give for B2 here?
The pKd was “below the threshold”.

What follows are binders tested against GRIP2_4, Q9C0E4 (assay: holdup assay). Details: plain residues with an end cap or a label only (N-terminal biotin on a linker: ado-ado).
Set-up: key: below the threshold = too weak to quantify, mostly under pKd 3.1 to 4

Sequence of GRIP2_4, Q9C0E4 (Q9C0E4 446-548): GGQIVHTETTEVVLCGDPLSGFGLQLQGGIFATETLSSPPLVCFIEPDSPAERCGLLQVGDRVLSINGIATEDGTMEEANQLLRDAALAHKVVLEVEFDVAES

With B1 as the binder, how does the pKd read?
Its pKd is “below the threshold”.

B2 was tested. Which pKd did it give?
Its pKd is “below the threshold”.

Each binder was assayed against TJP1_3, Q07157 (assay: holdup assay). Details: plain residues with an end cap or a label only (N-terminal biotin on a linker: ado-ado).
Set-up: key: below the threshold = too weak to quantify, mostly under pKd 3.1 to 4

Sequence of TJP1_3, Q07157 (Q07157 416-512): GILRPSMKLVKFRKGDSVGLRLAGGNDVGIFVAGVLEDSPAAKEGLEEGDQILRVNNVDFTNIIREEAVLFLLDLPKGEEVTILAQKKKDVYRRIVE

How did the pKd turn out when B1 was run?
The pKd was “below the threshold”.

How did the pKd turn out when B2 was run?
The pKd was “below the threshold”.

These binders were tested against T5, LIN7B, Q9HAP6 (assay: holdup assay). Details: plain residues with an end cap or a label only (N-terminal biotin on a linker: ado-ado).
Set-up: key: below the threshold = too weak to quantify, mostly under pKd 3.1 to 4

With B1 as the binder, how does the pKd read?
The pKd was “below the threshold”.

With B2 as the binder, how does the pKd read?
The pKd was 3.72.

The binders below were run against TJP2_1, Q9UDY2 (assay: holdup assay). Details: plain residues with an end cap or a label only (N-terminal biotin on a linker: ado-ado).
Set-up: key: below the threshold = too weak to quantify, mostly under pKd 3.1 to 4

Sequence of TJP2_1, Q9UDY2 (Q9UDY2 24-128): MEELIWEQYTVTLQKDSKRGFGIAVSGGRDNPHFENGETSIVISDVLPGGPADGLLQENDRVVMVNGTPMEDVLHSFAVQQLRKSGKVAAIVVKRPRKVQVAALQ

How did the pKd turn out when B1 was run?
Its pKd is 4.1.

With B2 as the binder, how does the pKd read?
The pKd was “below the threshold”.

These binders were tested against Inadl_6, Q8NI35 (assay: holdup assay). Details: plain residues with an end cap or a label only (N-terminal biotin on a linker: ado-ado).
Set-up: key: below the threshold = too weak to quantify, mostly under pKd 3.1 to 4

Sequence of Inadl_6, Q8NI35 (Q8NI35 1058-1167): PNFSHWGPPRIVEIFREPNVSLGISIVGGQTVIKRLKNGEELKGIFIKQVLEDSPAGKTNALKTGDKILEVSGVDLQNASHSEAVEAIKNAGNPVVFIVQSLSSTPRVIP

B1 was tested. Which pKd did it give?
The pKd was “below the threshold”.

Which pKd does the source give for B2 here?
Its pKd is “below the threshold”.

What follows are binders tested against T6, SNTG1, Q9NSN8 (assay: holdup assay). Details: plain residues with an end cap or a label only (N-terminal biotin on a linker: ado-ado).
Set-up: key: below the threshold = too weak to quantify, mostly under pKd 3.1 to 4

For B1, which pKd is on record?
Its pKd is “below the threshold”.

How did the pKd turn out when B2 was run?
Its pKd is “below the threshold”.

Each binder was assayed against HTRA2, O43464 (assay: holdup assay). Details: plain residues with an end cap or a label only (N-terminal biotin on a linker: ado-ado).
Set-up: key: below the threshold = too weak to quantify, mostly under pKd 3.1 to 4

Sequence of HTRA2, O43464 (O43464 355-458): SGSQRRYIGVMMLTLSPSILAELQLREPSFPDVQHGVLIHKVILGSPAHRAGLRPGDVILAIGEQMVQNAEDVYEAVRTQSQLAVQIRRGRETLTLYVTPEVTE

With B1 as the binder, how does the pKd read?
The pKd was “below the threshold”.

For B2, which pKd is on record?
The pKd was “below the threshold”.

What follows are binders tested against PDLIM1, O00151 (assay: holdup assay). Details: plain residues with an end cap or a label only (N-terminal biotin on a linker: ado-ado).
Set-up: key: below the threshold = too weak to quantify, mostly under pKd 3.1 to 4

Sequence of PDLIM1, O00151 (O00151 1-87): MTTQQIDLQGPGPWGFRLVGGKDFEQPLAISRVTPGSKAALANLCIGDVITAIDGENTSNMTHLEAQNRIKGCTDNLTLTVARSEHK

Which pKd does the source give for B1 here?
Its pKd is “below the threshold”.

Which pKd does the source give for B2 here?
The pKd was “below the threshold”.

What follows are binders tested against T7, TX1BP3, O14907 (assay: holdup assay). Details: plain residues with an end cap or a label only (N-terminal biotin on a linker: ado-ado).
Set-up: key: below the threshold = too weak to quantify, mostly under pKd 3.1 to 4

Which pKd does the source give for B1 here?
Its pKd is “below the threshold”.

B2 was tested. Which pKd did it give?
The pKd was 4.04.

Each binder was assayed against FRMPD2_2, Q68DX3 (assay: holdup assay). Details: plain residues with an end cap or a label only (N-terminal biotin on a linker: ado-ado).
Set-up: key: below the threshold = too weak to quantify, mostly under pKd 3.1 to 4

Sequence of FRMPD2_2, Q68DX3 (Q68DX3 944-1038): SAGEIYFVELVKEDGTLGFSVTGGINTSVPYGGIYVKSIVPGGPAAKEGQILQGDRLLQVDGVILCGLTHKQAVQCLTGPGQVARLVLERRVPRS

With B1 as the binder, how does the pKd read?
The pKd was “below the threshold”.

B2 was tested. Which pKd did it give?
The pKd was “below the threshold”.

These binders were tested against DLG4_3, P78352 (assay: holdup assay). Details: plain residues with an end cap or a label only (N-terminal biotin on a linker: ado-ado).
Set-up: key: below the threshold = too weak to quantify, mostly under pKd 3.1 to 4

Sequence of DLG4_3, P78352 (P78352 306-403): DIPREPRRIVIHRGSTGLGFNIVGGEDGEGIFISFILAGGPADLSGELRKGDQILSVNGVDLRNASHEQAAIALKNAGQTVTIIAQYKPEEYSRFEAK

For B1, which pKd is on record?
Its pKd is “below the threshold”.

For B2, which pKd is on record?
The pKd was “below the threshold”.

The binders below were run against LAP2, Q96RT1 (assay: holdup assay). Details: plain residues with an end cap or a label only (N-terminal biotin on a linker: ado-ado).
Set-up: key: below the threshold = too weak to quantify, mostly under pKd 3.1 to 4

Sequence of LAP2, Q96RT1 (Q96RT1 other isoform, or with tags, fused parts or gaps): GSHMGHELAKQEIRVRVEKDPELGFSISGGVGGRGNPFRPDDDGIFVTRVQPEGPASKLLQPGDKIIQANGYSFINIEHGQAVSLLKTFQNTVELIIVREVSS

For B1, which pKd is on record?
The pKd was “below the threshold”.

Which pKd does the source give for B2 here?
Its pKd is “below the threshold”.

These binders were tested against T8, RAPGEF6, Q8TEU7 (assay: holdup assay). Details: plain residues with an end cap or a label only (N-terminal biotin on a linker: ado-ado).
Set-up: key: below the threshold = too weak to quantify, mostly under pKd 3.1 to 4

How did the pKd turn out when B1 was run?
Its pKd is “below the threshold”.

For B2, which pKd is on record?
The pKd was “below the threshold”.

Each binder was assayed against T9, PDZD2_2, O15018 (assay: holdup assay). Details: plain residues with an end cap or a label only (N-terminal biotin on a linker: ado-ado).
Set-up: key: below the threshold = too weak to quantify, mostly under pKd 3.1 to 4

With B1 as the binder, how does the pKd read?
The pKd was 3.52.

Which pKd does the source give for B2 here?
The pKd was “below the threshold”.

The binders below were run against Inadl_9, Q8NI35 (assay: holdup assay). Details: plain residues with an end cap or a label only (N-terminal biotin on a linker: ado-ado).
Set-up: key: below the threshold = too weak to quantify, mostly under pKd 3.1 to 4

Sequence of Inadl_9, Q8NI35 (Q8NI35 1530-1615): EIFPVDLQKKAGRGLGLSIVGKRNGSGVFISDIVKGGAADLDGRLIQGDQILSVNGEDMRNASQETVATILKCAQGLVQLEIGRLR

Which pKd does the source give for B1 here?
Its pKd is “below the threshold”.

B2 was tested. Which pKd did it give?
Its pKd is “below the threshold”.

Each binder was assayed against MAGI2_3, Q86UL8 (assay: holdup assay). Details: plain residues with an end cap or a label only (N-terminal biotin on a linker: ado-ado).
Set-up: key: below the threshold = too weak to quantify, mostly under pKd 3.1 to 4

Sequence of MAGI2_3, Q86UL8 (Q86UL8 600-682): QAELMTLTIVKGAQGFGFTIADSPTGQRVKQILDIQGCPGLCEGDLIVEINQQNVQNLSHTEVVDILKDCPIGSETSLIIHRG

B1 was tested. Which pKd did it give?
The pKd was “below the threshold”.

For B2, which pKd is on record?
Its pKd is “below the threshold”.
